According to paper PMC7835227 (Scientific Reports, 2021):

Columns and labels:
[1] = biological target: T1, GYM329 (human); assay: SPR; Biacore T200, 25 °C, pH 6.0, PB-P+; antibody captured by protein L immobilised on a CM5 chip; FcRn as analyte, two-fold dilutions 15-240 nmol/L (GYM329) or 250-4000 nmol/L (trastuzumab); steady state model; settings: both partners purified
T1 construct: light chain of GYM329 (humanized, engineered MST1032); Made a molecule only as the ligand of Fc receptors (FcγRs, FcRn); Captured by protein L in the assays; also called anti-latent myostatin sweeping antibody; source: Chinese hamster ovary cells, stably expressed, purified (protein A)

[2] = biological target: T2, reference wild type human IgG1 (with trastuzumab Fab) (human); assay: as above; settings: both partners purified
T2 construct: heavy variable domain of trastuzumab; wild type human IgG1 heavy constant region; light chain of trastuzumab; Ligand of FcRn here; The supplement says that recombinant antibodies other than GYM329 and GYM-cyFc were expressed transiently in FreeStyle293-F and purified with protein A

T1 sequence (heavy, as listed by the source, chain 1 of 2): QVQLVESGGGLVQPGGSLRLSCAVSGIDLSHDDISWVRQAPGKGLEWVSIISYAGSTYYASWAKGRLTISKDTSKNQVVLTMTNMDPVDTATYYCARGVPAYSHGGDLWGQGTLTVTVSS
T1 sequence (light, as listed by the source, chain 2 of 2): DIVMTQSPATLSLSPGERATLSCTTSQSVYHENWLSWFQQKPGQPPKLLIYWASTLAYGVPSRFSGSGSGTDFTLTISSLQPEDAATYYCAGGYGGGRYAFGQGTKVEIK

Binder	Kd [1]	Kd [2]
cynomolgus monkey FcRn (receptor, limits not given; soluble ectodomain taken from the UniProt extracellular feature, with beta-2-microglobulin as obligate subunit by convention) chain 1: AESHLSLLYHLTAVSSPAPGTPAFWVSGWLGPQQYLSYDSLRGQAEPCGAWVWENQVSWYWEKETTDLRIKEKLFLEAFKALGGKGPYTLQGLLGCELSPDNTSVPTAKFALNGEEFMNFDLKQGTWGGDWPEALAISQRWQQQDKAANKELTFLLFSCPHRLREHLERGRGNLEWKEPPSMRLKARPGNPGFSVLTCSAFSFYPPELQLRFLRNGMAAGTGQGDFGPNSDGSFHASSSLTVKSGDEHHYCCIVQHAGLAQPLRVELETPAKSS chain 2: IQRTPKIQVYSRHPPENGKPNFLNCYVSGFHPSDIEVDLLKNGEKMGKVEHSDLSFSKDWSFYLLYYTEFTPNEKDEYACRVNHVTLSGPRTVKWDRDM	104 nM	
cynomolgus monkey FcRn (receptor) chain 1: AESHLSLLYHLTAVSSPAPGTPAFWVSGWLGPQQYLSYDSLRGQAEPCGAWVWENQVSWYWEKETTDLRIKEKLFLEAFKALGGKGPYTLQGLLGCELSPDNTSVPTAKFALNGEEFMNFDLKQGTWGGDWPEALAISQRWQQQDKAANKELTFLLFSCPHRLREHLERGRGNLEWKEPPSMRLKARPGNPGFSVLTCSAFSFYPPELQLRFLRNGMAAGTGQGDFGPNSDGSFHASSSLTVKSGDEHHYCCIVQHAGLAQPLRVELETPAKSS chain 2: IQRTPKIQVYSRHPPENGKPNFLNCYVSGFHPSDIEVDLLKNGEKMGKVEHSDLSFSKDWSFYLLYYTEFTPNEKDEYACRVNHVTLSGPRTVKWDRDM		1530 nM
